Measured values published in the supplement of paper PMC11246515.
± gives the standard deviation of the averaged measurements.

Assay: total protein half-life in vivo (active degradation + dilution); higher = more stable protein
[1] = E. coli NCM3722 delta-clpP delta-lon delta-hslV, growth: N-lim chemostat, doubling time 6 h
[2] = wild type E. coli NCM3722, growth: N-lim chemostat, doubling time 12 h
[3] = wild type E. coli NCM3722, growth: P-lim chemostat, doubling time 12 h
[4] = E. coli NCM3722 delta-clpP, growth: N-lim chemostat, doubling time 6 h
[5] = E. coli NCM3722 delta-hslV, growth: N-lim chemostat, doubling time 6 h
[6] = E. coli NCM3722 delta-smpB, growth: N-lim chemostat, doubling time 6 h
[7] = wild type E. coli NCM3722, growth: N-lim chemostat, doubling time 6 h
[8] = wild type E. coli NCM3722, growth: P-lim chemostat, doubling time 6 h
[9] = wild type E. coli NCM3722, growth: C-lim chemostat, doubling time 3 h
[10] = wild type E. coli NCM3722, growth: C-lim chemostat, doubling time 6 h
[11] = wild type E. coli NCM3722, growth: C-lim chemostat, doubling time 12 h
[12] = E. coli NCM3722 delta-lon, growth: N-lim chemostat, doubling time 6 h

MQQLASFLSGTWQSGRGRSRLIHHAISGEALWEVTSEGLDMAAARQFAIEKGAPALRAMTFIERAAMLKAVAKHLLSEKERFYALSAQTGATRADSWVDIEGGIGTLFTYASLGSRELPDDTLWPEDELIPLSKEGGFAARHLLTSKSGVAVHINAFNFPCWGMLEKLAPTWLGGMPAIIKPATATAQLTQAMVKSIVDSGLVPEGAISLICGSAGDLLDHLDSQDVVTFTGSAATGQMLRVQPNIVAKSIPFTMEADSLNCCVLGEDVTPDQPEFALFIREVVREMTTKAGQKCTAIRRIIVPQALVNAVSDALVARLQKVVVGDPAQEGVKMGALVNAEQRADVQEKVNILLAAGCEIRLGGQADLSAAGAFFPPTLLYCPQPDETPAVHATEAFGPVATLMPAQNQRHALQLACAGGGSLAGTLVTADPQIARQFIADAARTHGRIQILNEESAKESTGHGSPLPQLVHGGPGRAGGGEELGGLRAVKHYMQRTAVQGSPTMLAAISKQWVRGAKVEEDRIHPFRKYFEELQPGDSLLTPRRTMTEADIVNFACLSGDHFYAHMDKIAAAESIFGERVVHGYFVLSAAAGLFVDAGVGPVIANYGLESLRFIEPVKPGDTIQVRLTCKRKTLKKQRSAEEKPTGVVEWAVEVFNQHQTPVALYSILTLVARQHGDFVD
total protein half-life in vivo [1]: 4.86 h | total protein half-life in vivo [2]: 6.08 h | total protein half-life in vivo [3]: 7.41 h

MQQPVVRVGEWLVTPSINQISRNGRQLTLEPRLIDLLVFFAQHSGEVLSRDELIDNVWKRSIVTNHVVTQSISELRKSLKDNDEDSPVYIATVPKRGYKLMVPVIWYSEEEGEEIMLSSPPPIPEAVPATDSPSHSLNIQNTATPPEQSPVKSKRFTTFWVWFFFLLSLGICVALVAFSSLDTRLPMSKSRILLNPRDIDINMVNKSCNSWSSPYQLSYAIGVGDLVATSLNTFSTFMVHDKINYNIDEPSSSGKTLSIAFVNQRQYRAQQCFMSIKLVDNADGSTMLDKRYVITNGNQLAIQNDLLESLSKALNQPWPQRMQETLQKILPHRGALLTNFYQAHDYLLHGDDKSLNRASELLGEIVQSSPEFTYARAEKALVDIVRHSQHPLDEKQLAALNTEIDNIVTLPELNNLSIIYQIKAVSALVKGKTDESYQAINTGIDLEMSWLNYVLLGKVYEMKGMNREAADAYLTAFNLRPGANTLYWIENGIFQTSVPYVVPYLDKFLASE
total protein half-life in vivo [1]: 5.6 ± 0.59 h | total protein half-life in vivo [4]: 5.47 ± 0.86 h | total protein half-life in vivo [5]: 5.65 ± 0.78 h | total protein half-life in vivo [6]: 5.484 ± 0.022 h | total protein half-life in vivo [7]: 5.06 ± 0.32 h | total protein half-life in vivo [2]: 12.73 ± 0.03 h | total protein half-life in vivo [8]: 6.18 ± 0.23 h | total protein half-life in vivo [3]: 12.08 ± 0.11 h

MQQSTPYLSFRGIGKTFPGVKALTDISFDCYAGQVHALMGENGAGKSTLLKILSGNYAPTTGSVVINGQEMSFSDTTAALNAGVAIIYQELHLVPEMTVAENIYLGQLPHKGGIVNRSLLNYEAGLQLKHLGMDIDPDTPLKYLSIGQWQMVEIAKALARNAKIIAFDEPTSSLSAREIDNLFRVIRELRKEGRVILYVSHRMEEIFALSDAITVFKDGRYVKTFTDMQQVDHDALVQAMVGRDIGDIYGWQPRSYGEERLRLDAVKAPGVRTPISLAVRSGEIVGLFGLVGAGRSELMKGMFGGTQITAGQVYIDQQPIDIRKPSHAIAAGMMLCPEDRKAEGIIPVHSVRDNINISARRKHVLGGCVINNGWEENNADHHIRSLNIKTPGAEQLIMNLSGGNQQKAILGRWLSEEMKVILLDEPTRGIDVGAKHEIYNVIYALAAQGVAVLFASSDLPEVLGVADRIVVMREGEIAGELLHEQADERQALSLAMPKVSQAVA [P0AAF3]
total protein half-life in vivo [5]: 5.15 h | total protein half-life in vivo [6]: 2.45 ± 0.57 h | total protein half-life in vivo [9]: 2.228 ± 0.021 h | total protein half-life in vivo [10]: 3.922 ± 0.021 h | total protein half-life in vivo [11]: 5.96 ± 0.79 h | total protein half-life in vivo [2]: 6.06 h | total protein half-life in vivo [3]: 10.5 h

MQQVFFQETEFLNSVIDYDHKVETENLCLDIAYGTDKNFLFGCGISIASILKYNEGSRLCFHIFTDYFGDDDRKYFDALALQYKTRIKIYLINGDRLRSLPSTKNWTHAIYFRFVIADYFINKAPKVLYLDADIICQGTIEPLINFSFPDDKVAMVVTEGQADWWEKRAHSLGVAGIAKGYFNSGFLLINTAQWAAQQVSARAIAMLNEPEIIKKITHPDQDVLNMLLADKLIFADIKYNTQFSLNYQLKESFINPVTNDTIFIHYIGPTKPWHDWAWDYPVSQAFMEAKNASPWKNTALLKPNNSNQLRYSAKHMLKKHRYLKGFSNYLFYFIEKIKH
total protein half-life in vivo [1]: 6.72 ± 0.28 h | total protein half-life in vivo [5]: 5.66 ± 0.42 h | total protein half-life in vivo [12]: 5.78 ± 0.3 h | total protein half-life in vivo [6]: 5.82 ± 0.17 h | total protein half-life in vivo [9]: 2.95 ± 0.088 h | total protein half-life in vivo [10]: 5.41 ± 0.61 h | total protein half-life in vivo [11]: 10.4 ± 1.1 h | total protein half-life in vivo [7]: 5.16 ± 1.2 h | total protein half-life in vivo [2]: 11.7 ± 0.74 h | total protein half-life in vivo [8]: 5.85 ± 0.45 h | total protein half-life in vivo [3]: 11.3 ± 1 h

MQREDVLGEALKLLELQGIANTTLEMVAERVDYPLDELRRFWPDKEAILYDALRYLSQQIDVWRRQLMLDETQTAEQKLLARYQALSECVKNNRYPGCLFIAACTFYPDPGHPIHQLADQQKSAAYDFTHELLTTLEVDDPAMVAKQMELVLEGCLSRMLVNRSQADVDTAHRLAEDILRFARCRQGGALT [P0ACU7]
total protein half-life in vivo [1]: 3.74 ± 0.51 h | total protein half-life in vivo [4]: 3.63 ± 0.25 h | total protein half-life in vivo [5]: 4.07 ± 0.91 h | total protein half-life in vivo [12]: 3.78 ± 0.57 h | total protein half-life in vivo [6]: 3.411 ± 0.028 h | total protein half-life in vivo [9]: 2.94 ± 0.46 h | total protein half-life in vivo [10]: 4.86 ± 0.17 h | total protein half-life in vivo [11]: 10.4 ± 2.6 h | total protein half-life in vivo [7]: 3.44 ± 0.037 h | total protein half-life in vivo [2]: 5.51 ± 0.28 h | total protein half-life in vivo [8]: 5.04 ± 0.78 h | total protein half-life in vivo [3]: 12 ± 0.99 h

MQRGIVWVVDDDSSIRWVLERALAGAGLTCTTFENGAEVLEALASKTPDVLLSDIRMPGMDGLALLKQIKQRHPMLPVIIMTAHSDLDAAVSAYQQGAFDYLPKPFDIDEAVALVERAISHYQEQQQPRNVQLNGPTTDIIGEAPAMQDVFRIIGRLSRSSISVLINGESGTGKELVAHALHRHSPRAKAPFIALNMAAIPKDLIESELFGHEKGAFTGANTIRQGRFEQADGGTLFLDEIGDMPLDVQTRLLRVLADGQFYRVGGYAPVKVDVRIIAATHQNLEQRVQEGKFREDLFHRLNVIRVHLPPLRERREDIPRLARHFLQVAARELGVEAKLLHPETEAALTRLAWPGNVRQLENTCRWLTVMAAGQEVLIQDLPGELFESTVAESTSQMQPDSWATLLAQWADRALRSGHQNLLSEAQPELERTLLTTALRHTQGHKQEAARLLGWGRNTLTRKLKELGME [P0AFB8]
total protein half-life in vivo [1]: 5.64 ± 0.8 h | total protein half-life in vivo [4]: 5.18 ± 0.39 h | total protein half-life in vivo [5]: 4.86 ± 0.35 h | total protein half-life in vivo [12]: 5.263 ± 0.02 h | total protein half-life in vivo [6]: 4.32 ± 0.052 h | total protein half-life in vivo [9]: 2.678 ± 0.0012 h | total protein half-life in vivo [10]: 4.85 ± 0.1 h | total protein half-life in vivo [11]: 8.034 ± 0.033 h | total protein half-life in vivo [7]: 4.72 ± 0.12 h | total protein half-life in vivo [2]: 7.57 ± 0.25 h | total protein half-life in vivo [8]: 4.22 ± 0.085 h | total protein half-life in vivo [3]: 7.58 ± 0.097 h

MQRLFLLVAVMLLSGCLTAPPKEAARPTLMPRAQSYKDLTHLPAPTGKIFVSVYNIQDETGQFKPYPASNFSTAVPQSATAMLVTALKDSRWFIPLERQGLQNLLNERKIIRAAQENGTVAINNRIPLQSLTAANIMVEGSIIGYESNVKSGGVGARYFGIGADTQYQLDQIAVNLRVVNVSTGEILSSVNTSKTILSYEVQAGVFRFIDYQRLLEGEVGYTSNEPVMLCLMSAIETGVIFLINDGIDRGLWDLQNKAERQNDILVKYRHMSVPPES [P0AEA2]
total protein half-life in vivo [2]: 4.39 h
